One block for each molecule: values may come before it.
How the values were obtained:
[1] = target: UBP (ucm-binding protein), recombinant wild type (Sulfolobus islandicus REY15A) (UniProt F0NFD3); assay: crystal structure; DNA-free UBP, two crystal forms (C2221 and twinned P21 with four dimers in the asymmetric unit); sodium acetate pH 4.8-5.2, PEG6000, 20 °C
MCM-NT = target: T1, MCM-NT (Sulfolobus islandicus REY15A, UniProt F0NF15 1-266); assay: EMSA; without UBP; EMSA: 50 mM K-acetate, 20 mM Tris-acetate, 10 mM Mg-acetate, 1 mM DTT, pH 7.9, 5-10% glycerol, 70 mM NaCl, 800 ng salmon sperm DNA per 10 ul, room temperature 10 min; footprinting same buffer, 4% glycerol, 8000 ng salmon sperm DNA; pull-down 25 mM HEPES pH 7.5, 150 mM NaCl, 10 mM MgCl, 100 uM ZnCl, 10 mM DTT, 48 C; conditions: protein: recombinant; tags: C-terminal 6xHis; chain copies: 6; label: 5'-32P; blunt
T1 sequence: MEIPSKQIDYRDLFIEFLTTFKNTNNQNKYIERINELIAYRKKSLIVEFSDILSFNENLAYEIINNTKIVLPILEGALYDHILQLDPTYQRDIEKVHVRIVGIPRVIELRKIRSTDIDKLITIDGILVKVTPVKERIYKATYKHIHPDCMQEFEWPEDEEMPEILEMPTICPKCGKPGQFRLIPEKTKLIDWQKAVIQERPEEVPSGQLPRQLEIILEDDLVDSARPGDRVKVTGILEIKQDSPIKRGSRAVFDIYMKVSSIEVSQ

MCM = target: T2, MCM (UniProt F0NF15 1-686); assay: as above; conditions: protein: recombinant; chain copies: 6; label: 5'-32P; blunt
T2 sequence: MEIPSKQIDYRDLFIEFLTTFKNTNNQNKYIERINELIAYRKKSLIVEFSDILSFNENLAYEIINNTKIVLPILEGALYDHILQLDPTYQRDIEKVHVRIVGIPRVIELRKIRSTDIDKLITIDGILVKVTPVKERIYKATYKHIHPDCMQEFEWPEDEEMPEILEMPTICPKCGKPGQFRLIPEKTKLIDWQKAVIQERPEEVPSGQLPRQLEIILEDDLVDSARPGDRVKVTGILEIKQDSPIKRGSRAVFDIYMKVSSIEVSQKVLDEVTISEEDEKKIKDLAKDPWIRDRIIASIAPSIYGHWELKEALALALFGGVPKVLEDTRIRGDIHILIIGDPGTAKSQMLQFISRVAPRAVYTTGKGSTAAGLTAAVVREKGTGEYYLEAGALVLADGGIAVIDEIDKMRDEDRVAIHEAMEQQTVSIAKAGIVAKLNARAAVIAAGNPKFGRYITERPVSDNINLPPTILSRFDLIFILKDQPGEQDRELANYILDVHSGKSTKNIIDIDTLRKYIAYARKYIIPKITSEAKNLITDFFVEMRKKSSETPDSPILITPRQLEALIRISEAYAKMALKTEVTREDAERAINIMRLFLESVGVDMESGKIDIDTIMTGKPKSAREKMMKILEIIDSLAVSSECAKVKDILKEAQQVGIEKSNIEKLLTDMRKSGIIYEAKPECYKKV

UBP;MCM-NT = target: T3, UBP;MCM-NT (Sulfolobus islandicus REY15A;Sulfolobus …, UniProt F0NFD3;F0NF15 1-111;1-266, |); assay: EMSA; 370 nM UBP; preferred over naked DNA; EMSA: 50 mM K-acetate, 20 mM Tris-acetate, 10 mM Mg-acetate, 1 mM DTT, pH 7.9, 5-10% glycerol, 70 mM NaCl, 800 ng salmon sperm DNA per 10 ul, room temperature 10 min; footprinting same buffer, 4% glycerol, 8000 ng salmon sperm DNA; pull-down 25 mM HEPES pH 7.5, 150 mM NaCl, 10 mM MgCl, 100 uM ZnCl, 10 mM DTT, 48 C; conditions: protein: recombinant;recombinant; tags: MBP tag removed by Factor Xa; 3 extra vector residues at N-terminus;C-terminal 6xHis; label: 5'-32P; blunt
T3 sequence 1: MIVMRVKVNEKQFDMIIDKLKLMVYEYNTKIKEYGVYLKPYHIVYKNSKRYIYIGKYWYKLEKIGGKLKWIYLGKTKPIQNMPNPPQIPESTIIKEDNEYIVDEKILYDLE
T3 sequence 2: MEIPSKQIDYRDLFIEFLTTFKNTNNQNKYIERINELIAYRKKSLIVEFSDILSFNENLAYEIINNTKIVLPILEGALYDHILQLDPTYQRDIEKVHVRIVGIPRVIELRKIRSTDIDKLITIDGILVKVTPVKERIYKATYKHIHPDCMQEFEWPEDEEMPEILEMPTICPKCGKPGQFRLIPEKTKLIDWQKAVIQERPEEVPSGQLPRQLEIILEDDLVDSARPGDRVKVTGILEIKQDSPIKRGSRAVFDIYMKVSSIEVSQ

UBP;MCM = target: T4, UBP;MCM (Sulfolobus islandicus REY15A;Sulfolobus …, UniProt F0NFD3;F0NF15 1-111;1-686, |); assay: as above; conditions: protein: recombinant;recombinant; tags: MBP tag removed by Factor Xa; 3 extra vector residues at N-terminus;; label: 5'-32P; blunt
T4 sequence 1: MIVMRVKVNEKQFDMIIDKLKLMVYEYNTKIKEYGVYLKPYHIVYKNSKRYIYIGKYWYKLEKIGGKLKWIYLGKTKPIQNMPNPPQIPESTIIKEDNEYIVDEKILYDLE
T4 sequence 2: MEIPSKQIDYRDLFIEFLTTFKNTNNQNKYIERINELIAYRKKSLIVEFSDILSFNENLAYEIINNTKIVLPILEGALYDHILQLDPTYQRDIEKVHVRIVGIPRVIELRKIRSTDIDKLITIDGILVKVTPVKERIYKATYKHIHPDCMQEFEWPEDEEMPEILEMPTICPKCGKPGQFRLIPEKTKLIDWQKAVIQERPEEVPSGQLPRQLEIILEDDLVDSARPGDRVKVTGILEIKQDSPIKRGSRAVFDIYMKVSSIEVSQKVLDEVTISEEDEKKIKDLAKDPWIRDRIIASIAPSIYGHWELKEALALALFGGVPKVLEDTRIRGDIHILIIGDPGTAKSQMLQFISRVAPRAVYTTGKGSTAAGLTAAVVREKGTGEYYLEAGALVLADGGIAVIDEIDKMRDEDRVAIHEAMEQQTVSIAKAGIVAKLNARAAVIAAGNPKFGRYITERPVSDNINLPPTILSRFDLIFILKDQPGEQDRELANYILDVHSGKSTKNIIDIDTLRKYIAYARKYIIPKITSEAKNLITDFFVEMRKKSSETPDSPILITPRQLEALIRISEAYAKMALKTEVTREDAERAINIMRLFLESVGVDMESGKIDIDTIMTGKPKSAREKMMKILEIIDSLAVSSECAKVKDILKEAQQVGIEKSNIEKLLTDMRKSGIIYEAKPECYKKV

UBP [2] = target: T5, UBP (Sulfolobus islandicus REY15A, UniProt F0NFD3 1-111); assay: EMSA; 370 nM UBP; EMSA: 50 mM K-acetate, 20 mM Tris-acetate, 10 mM Mg-acetate, 1 mM DTT, pH 7.9, 5-10% glycerol, 70 mM NaCl, 800 ng salmon sperm DNA per 10 ul, room temperature 10 min; footprinting same buffer, 4% glycerol, 8000 ng salmon sperm DNA; pull-down 25 mM HEPES pH 7.5, 150 mM NaCl, 10 mM MgCl, 100 uM ZnCl, 10 mM DTT, 48 C; conditions: protein: recombinant; tags: MBP tag removed by Factor Xa; 3 extra vector residues at N-terminus; chain copies: 2; label: 5'-32P; blunt
T5 sequence: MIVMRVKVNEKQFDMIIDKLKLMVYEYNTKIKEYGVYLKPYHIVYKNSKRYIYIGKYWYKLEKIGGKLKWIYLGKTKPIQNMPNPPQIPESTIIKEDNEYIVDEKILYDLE

UBP [3] = target: T5, UBP; assay: EMSA; up to 740 nM UBP; EMSA: 50 mM K-acetate, 20 mM Tris-acetate, 10 mM Mg-acetate, 1 mM DTT, pH 7.9, 5-10% glycerol, 70 mM NaCl, 800 ng salmon sperm DNA per 10 ul, room temperature 10 min; footprinting same buffer, 4% glycerol, 8000 ng salmon sperm DNA; pull-down 25 mM HEPES pH 7.5, 150 mM NaCl, 10 mM MgCl, 100 uM ZnCl, 10 mM DTT, 48 C; conditions: protein: recombinant; tags: MBP tag removed by Factor Xa; 3 extra vector residues at N-terminus; chain copies: 2; label: 5'-32P
UBP [4] = target: T5, UBP; assay: EMSA; EMSA: 50 mM K-acetate, 20 mM Tris-acetate, 10 mM Mg-acetate, 1 mM DTT, pH 7.9, 5-10% glycerol, 70 mM NaCl, 800 ng salmon sperm DNA per 10 ul, room temperature 10 min; footprinting same buffer, 4% glycerol, 8000 ng salmon sperm DNA; pull-down 25 mM HEPES pH 7.5, 150 mM NaCl, 10 mM MgCl, 100 uM ZnCl, 10 mM DTT, 48 C; conditions: protein: recombinant; tags: MBP tag removed by Factor Xa; 3 extra vector residues at N-terminus; chain copies: 2; label: 5'-32P; blunt

stoichiometry N [1]: 2
Molecule: UBP (ucm-binding protein), recombinant wild type (from UniProt F0NFD3 1-111)

B1: oriC1 140 bp (P21/P22) (dsDNA)
DNA 1: TATTTTGAGCAACATTTTGTTATAATTAGATAACCATTATACAAAAGAATTGTATAAGAATGAAATCAAAGCTTATTTTATGTCACTAGAATCTCCAAATGAAATACTGGGGTAGGCCTTGTTTATGACACAACTTACAT
DNA 2: ATGTAAGTTGTGTCATAAACAAGGCCTACCCCAGTATTTCATTTGGAGATTCTAGTGACATAAAATAAGCTTTGATTTCATTCTTATACAATTCTTTTGTATAATGGTTATCTAATTATAACAAAATGTTGCTCAAAATA
binding result (MCM-NT): binds
binding result (MCM): binds
binding result (UBP;MCM-NT): binds
binding result (UBP;MCM): binds
binding result (UBP [2]): binds

Molecule: AACCATTATACAAAAGAATT (ssDNA) [ucm 20 nt top strand (P17)]
binding result (UBP [3]): no binding

B2: scr 50 bp (P7/P8) (dsDNA)
DNA 1: ATAATATTTGAAATTAAATGCTTAGTGAATATACGTACAGAATAAAAATT
DNA 2: AATTTTTATTCTGTACGTATATTCACTAAGCATTTAATTTCAAATATTAT
binding result (UBP [4]): no binding

From PMC12141716, “An archaeal nucleoid-associated protein binds an essential motif in DNA replication origins” (Nature Communications, 2025)
